According to publication PMC5389812, “Rv3634c from Mycobacterium tuberculosis H37Rv encodes an enzyme with UDP-Gal/Glc and UDP-GalNAc 4-epimerase activities” (PLoS ONE, 2017):

Molecular target: the molecule itself
Assay: SEC; Superdex 200 16/600 GL column, FPLC buffer (20 mM Tris pH 8.0, 100 mM NaCl); calibrated with conalbumin, ovalbumin, carbonic anhydrase, ribonuclease A and aprotinin; molecular weight from Kav

B1: His-tagged Rv3634c (H3634), wild type, UDP-Gal/Glc and UDP-GalNAc 4-epimerase from Mycobacterium tuberculosis H37Rv (enzyme)
chain: MRALVTGAAGFIGSTLVDRLLADGHSVVGLDNFATGRATNLEHLADNSAHVFVEADIVTADLHAILEQHRPEVVFHLAAQIDVRRSVADPQFDAAVNVIGTVRLAEAARQTGVRKIVHTSSGGSIYGTPPEYPTPETAPTDPASPYAAGKVAGEIYLNTFRHLYGLDCSHIAPANVYGPRQDPHGEAGVVAIFAQALLSGKPTRVFGDGTNTRDYVFVDDVVDAFVRVSADVGGGLRFNIGTGKETSDRQLHSAVAAAVGGPDDPEFHPPRLGDLKRSCLDIGLAERVLGWRPQIELADGVRRTVEYFRHKHTD
notes: the protein is called H3634 (His-tagged Rv3634c) in the size exclusion experiment; also called WT; WT H3634; not shown: His6, N-terminal, kept
stoichiometry N: 2
